For this assay, the target named is MUC18 (target of JM1-24-3 as used in Bio-Layer Interferometry) (Homo sapiens (Human)) (UniProt P43121). In words: Bio-Layer Interferometry, Octet RED384. (In general: BLI is a label-free optical method that tracks binding on a fibre tip over time.)

B1: JM1-24-3 (antibody, V domains shown)
VH: MSCKASGYAFTSYWMNWIKERPGQGLEWIGAIDPFNGYTEYNHKFKDKAILTADNSSSTVYMQLSSLTSEDSAVYYCARWGGRLYFDYWGQGTTLTVSS
VL: MTQSPSSMYASLGERVTITCKASQDINSFLSWFQQKPGKSPKTLIYRANRLVDGVPSRFSGSGSGQDYSLTISSLEYEDMGIYYCLQYDEFPYTFGGGTKLEIKR
A word on the Kd: it is the equilibrium constant for the complex coming apart. A lower Kd goes with a tighter complex. B1: the Kd worked out at 1.6 nM.

The record behind these values is patent publication US20230391886A1.
